Results as given in paper PMC7932925.

Columns and labels:
[1] = biological target: FLAG-tagged VEGF^121 (WT), a soluble splicing variant of VEGFA; experiment: non-reducing SDS-PAGE and FLAG immunoblot; FLAG-VEGF^121 immunopurified with FLAG-M1 antibody from conditioned media of transfected WT HeLa (and WT MDAMB231^m) cells; reducing against non-reducing immunoblot; disulfide-bonded homodimer against monomer
[2] = biological target: FLAG-tagged VEGF^121 (WT), a soluble splicing variant of VEGFA; experiment: non-reducing SDS-PAGE and FLAG immunoblot; FLAG-VEGF^121 immunopurified with FLAG-M1 antibody from conditioned media of transfected ERO1 KO HeLa (and ERO1 KO MDAMB231^m) cells; reducing against non-reducing immunoblot; disulfide-bonded homodimer against monomer

- stoichiometry N [1]: 2
- monomer as percent of the total secreted VEGF^121 [2]: 80%
Substance: FLAG-tagged VEGF^121 (WT), a soluble splicing variant of VEGFA (ligand)
